According to US12269859B2, “Synthetic immune receptors and methods of use thereof” (Angeles Therapeutics, Inc., priority 2016, dated 2025):

Test system: target antigen-expressing cell line
Experiment: Jurkat NFAT-GFP assay, coculture with target cell lines expressing the respective target antigen (summary Table 10A)
Format: cell-based, human
Design: key: The signs +/−, +, 2+ etc. after the name of the cell lines indicate the relative degree of positivity on the Jurkat-NFAT-GFP assay as measured by the % GFP positive cells; +: relative degree of positivity on the Jurkat-NFAT-GFP assay as measured by the % GFP positive cells; 2+: relative degree of positivity on the Jurkat-NFAT-GFP assay as measured by the % GFP positive cells
Procedure, shortened: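 Coculture of SIR-bearing Jurkat NFAT-GFP reporters with target cells, ~1:2 E:T, ~4–18 h. FACS quantified % GFP+ cells, ranked semi-quantitatively against parental Jurkat-NFAT-GFP.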

B1: 072717-G01 (protein)
chain: MALPVTALLLPLALLLHAARPLEGKPIPNPLLGLDSTGSGEDLKNVFPPEVAVFEPSKAEIAHTQKATLVCLATGFYPDHVELSWWVNGKEVHSGVCTDPQPLKEQPALNDSRYCLSSRLRVSATFWQNPRNHFRCQVQFYGLSENDEWTQDRAKPVTQIVSAEAWGRADCGITSASYHQGVLSATILYEILLGKATLYAVLVSALVLMAMVKRKDSRGRAKRSGSGATNFSLLKQAGDVEENPGPTSMALPVTALLLPLALLLHAARPEFAVQLVESGGGLVQAGDSLRLTCTASGRAFSTYFMAWFRQAPGKEREFVAGIAWSGGSTAYADSVKGRFTISRDNAKNTVYLQMNSLKSEDTAVYYCASRGIEVEEFGAWGQGTQVTVSSPGGGGSPQVQLVESGGGLVQAGGSLRLSCAASGGTLSKNTVAWFRQAPGKERGFVASITWDGRTTYYADSVKGRFTISRDNAKNTVYLQMNSLKPEDTAVYVCADLGKWPAGPADYWGQGTQVTVSSEVAALEKEVAALEKEVAALEKEVAALEKTREQKLISEEDGSGIQNPDPAVYQLRDSKSSDKSVCLFTDFDSQTNVSQSKDSDVYITDKCVLDMRSMDFKSNSAVAWSNKSDFACANAFNNSIIPEDTFFPSSDVPCDVKLVEKSFETDTNLNFQNLSVIGFRILLLKVAGFNLLMTLRLWSSRAKRSGSGVKQTLNFDLLKLAGDVESNPGPSRGHMTEYKPTVRLATRDDVPRAVRTLAAAFADYPATRHTVDPDRHIERVTELQELFLTRVGLDIGKVWVADDGAAVAVWTTPESVEAGAVFAEIGPRMAELSGSRLAAQQQMEGLLAPHRPKEPAWFLATVGVSPDHQGKGLGSAVVLPGVEAAERAGVPAFLETSAPRNLPFYERLGFTVTADVEVPEGPRTWCMTRKPGA
SIR-expressing Jurkat-NFAT-GFP cells cocultured with L363, relative % GFP positive cells
  NFAT-GFP ASSAY Positive Cell lines: L363: L363 (+/−), U266
SIR-expressing Jurkat-NFAT-GFP cells cocultured with U266, relative % GFP positive cells
  NFAT-GFP ASSAY Positive Cell lines: U266: (+/−)

B2: 110116-H02 (protein)
chain: MALPVTALLLPLALLLHAARPLEQKLISEEDLGSGDRPDPAVYQLRDSKSSDKSVCLFTDFDSQTNVSQSKDSDVYITDKCVLDMRSMDFKSNSAVAWSNKSDFACANAFNNSIIPEDTFFPSPESSCDVKLVEKSFETDTNLNFQNLSVIGFRILLLKVAGFNLLMTLRLWSSSSRAKRSGSGVKQTLNFDLLKLAGDVESNPGPTSMALPVTALLLPLALLLHAARPDIQMTQSTSSLSASLGDRVTISCSASQGINNYLNWYQQKPDGTVELLIYYTSTLQSGVPSRFSGSGSGTDYSLTISNLEPEDIGTYYCQQYSKLPRTFGGGTKLEIKGGGGSGGGGSGGGGSQVQLQQSGSELMMPGASVKISCKATGYTFSNYWIEWVKQRPGHGLEWIGEILPGTGRTIYNEKFKGKATFTADISSNTVQMQLSSLTSEDSAVYYCARRDYYGNFYYAMDYWGQGTSVTVSSTRGKPIPNPLLGLDSTGSGEDLKNVFPPEVAVFEPSEAEISHTQKATLVCLATGFYPDHVELSWWVNGKEVHSGVCTDPQPLKEQPALNDSRYCLSSRLRVSATFWQNPRNHFRCQVQFYGLSENDEWTQDRAKPVTQIVSAEAWGRADCGFTSESYQQGVLSATILYEILLGKATLYAVLVSALVLMAMVKRKDSRGRAKRSGSGATNFSLLKQAGDVEENPGPSRGHMTEYKPTVRLATRDDVPRAVRTLAAAFADYPATRHTVDPDRHIERVTELQELFLTRVGLDIGKVWVADDGAAVAVWTTPESVEAGAVFAEIGPRMAELSGSRLAAQQQMEGLLAPHRPKEPAWFLATVGVSPDHQGKGLGSAVVLPGVEAAERAGVPAFLETSAPRNLPFYERLGFTVTADVEVPEGPRTWCMTRKPGA
modifications: Synthetic Immune Receptor (SIR)
Coculture with L363 cells
  NFAT-GFP ASSAY Positive Cell lines: L363 (+/−), U266
Coculture with U266 cells
  NFAT-GFP ASSAY Positive Cell lines: (+)

B3: 082317-G04 (protein)
chain: MALPVTALLLPLALLLHAARPLEGKPIPNPLLGLDSTGSGEDLKNVFPPEVAVFEPSKAEIAHTQKATLVCLATGFYPDHVELSWWVNGKEVHSGVCTDPQPLKEQPALNDSRYCLSSRLRVSATFWQNPRNHFRCQVQFYGLSENDEWTQDRAKPVTQIVSAEAWGRADCGITSASYHQGVLSATILYEILLGKATLYAVLVSALVLMAMVKRKDSRGRAKRSGSGATNFSLLKQAGDVEENPGPTSMALPVTALLLPLALLLHAARPQIVLTQSPAIMSASPGEKVTITCSASSSVSYMHWFQQKPGTSPKLWIYSTSNLASGVPARFSGSGSGTSYSLTISRMEAEDAATYYCQQRSSYPPTFGGGTKLEIKGGGGSGGGGSGGGGSQVQLQQSGAELMKPGASVKISCKATGYTFSSYWIEWVKQRPGHGLEWIGEILPGSGSTNYNEKFKGKATFTADTSSNTAYMQLSSLTSEDSAVYYCARYDYPWFAYWGQGTLVTVSATREQKLISEEDGSGIQNPDPAVYQLRDSKSSDKSVCLFTDFDSQTNVSQSKDSDVYITDKCVLDMRSMDFKSNSAVAWSNKSDFACANAFNNSIIPEDTFFPSSDVPCDVKLVEKSFETDTNLNFQNLSVIGFRILLLKVAGFNLLMTLRLWSSRAKRSGSGVKQTLNFDLLKLAGDVESNPGPSRGHMTEYKPTVRLATRDDVPRAVRTLAAAFADYPATRHTVDPDRHIERVTELQELFLTRVGLDIGKVWVADDGAAVAVWTTPESVEAGAVFAEIGPRMAELSGSRLAAQQQMEGLLAPHRPKEPAWFLATVGVSPDHQGKGLGSAVVLPGVEAAERAGVPAFLETSAPRNLPFYERLGFTVTADVEVPEGPRTWCMTRKPGA
Coculture with L428 cells
  NFAT-GFP ASSAY Positive Cell lines: L428 (+/−)

B4: 091616-Z01 (protein)
chain: MALPVTALLLPLALLLHAARPDIVMTQSPDSLAVSLGERATINCKSSQSILYSSNQKNYLAWYQQKPGQSPKLLIYWASTRESGVPDRFSGSGSGTDFTLTISSLQAEDVAVYYCHQYISSYTFGQGTKLEIKLEEQKLISEEDLGSGEDLKNVFPPEVAVFEPSKAEIAHTQKATLVCLATGFYPDHVELSWWVNGKEVHSGVCTDPQPLKEQPALNDSRYCLSSRLRVSATFWQNPRNHFRCQVQFYGLSENDEWTQDRAKPVTQIVSAEAWGRADCGITSASYHQGVLSATILYEILLGKATLYAVLVSALVLMAMVKRKDSRGRAKRSGSGATNFSLLKQAGDVEENPGPTSMDWIWRILFLVGAATGAHSFEQVQLVQSGAEVKKPGASVKVSCKASGYTFASQWMHWMRQAPGQGLEWIGWINPGNVNTKYNEKFKGRATLTVDTSTNTAYMELSSLRSEDTAVYYCARSTWYRPLDYWGQGTLVTVSSTREQKLISEEDLGSGIQNPDPAVYQLRDSKSSDKSVCLFTDFDSQTNVSQSKDSDVYITDKCVLDMRSMDFKSNSAVAWSNKSDFACANAFNNSIIPEDTFFPSSDVPCDVKLVEKSFETDTNLNFQNLSVIGFRILLLKVAGFNLLMTLRLWSSRAKRSGSGVKQTLNFDLLKLAGDVESNPGPSRGHMTEYKPTVRLATRDDVPRAVRTLAAAFADYPATRHTVDPDRHIERVTELQELFLTRVGLDIGKVWVADDGAAVAVWTTPESVEAGAVFAEIGPRMAELSGSRLAAQQQMEGLLAPHRPKEPAWFLATVGVSPDHQGKGLGSAVVLPGVEAAERAGVPAFLETSAPRNLPFYERLGFTVTADVEVPEGPRTWCMTRKPGA
modifications: Synthetic Immune Receptor (SIR)
SIR-expressing Jurkat-NFAT-GFP cells cocultured with L428, relative % GFP positive cells
  NFAT-GFP ASSAY Positive Cell lines: L428: L428 (+/−)

B5: 041816-A03 (protein)
chain: MALPVTALLLPLALLLHAARPDIQMTQSPSSLSASLGERVSLTCRATQELSGYLSWLQQKPDGTIKRLIYAASTLDSGVPKRFSGNRSGSDYSLTISSLESEDFADYYCLQYAIYPYTFGGGTKLEIKLEDLKNVFPPEVAVFEPSEAEISHTQKATLVCLATGFYPDHVELSWWVNGKEVHSGVSTDPQPLKEQPALNDSRYCLSSRLRVSATFWQNPRNHFRCQVQFYGLSENDEWTQDRAKPVTQIVSAEAWGRADCGFTSESYQQGVLSATILYEILLGKATLYAVLVSALVLMAMVKRKDSRGRAKRSGSGATNFSLLKQAGDVEENPGPTSMDWIWRILFLVGAATGAHSFEEVQLQQSGPELVKPGASVKMSCKASGYTFTSYFIHWVKQKPGQGLEWIGFINPYNDGSKYNEKFKGKATLTSDKSSSTAYMELSSLTSEDSAVYYCTRDDGYYGYAMDYWGQGTSVTVSSTREQKLISEEDGSGTPFPSLAPPIMLLVDGKQQMVVVCLVLDVAPPGLDSPIWFSAGNGSALDAFTYGPSPATDGTWTNLAHLSLPSEELASWEPLVCHTGPGAEGHSRSTQPMHLSGEASTARTCPQEPLRGTPGGALWLGVLRLLLFKLLLFDLLLTCSCLCDPAGPLPSPATTTRLRALGSHRLHPATETGGREATSSPRPQPRDRRWGDTPPGRKPGSPVRAKRSGSGVKQTLNFDLLKLAGDVESNPGPSRGHMTEYKPTVRLATRDDVPRAVRTLAAAFADYPATRHTVDPDRHIERVTELQELFLTRVGLDIGKVWVADDGAAVAVWTTPESVEAGAVFAEIGPRMAELSGSRLAAQQQMEGLLAPHRPKEPAWFLATVGVSPDHQGKGLGSAVVLPGVEAAERAGVPAFLETSAPRNLPFYERLGFTVTADVEVPEGPRTWCMTRKPGA
modifications: Polynucleotide encoding a Synthetic Immune Receptor (SIR)
Coculture with L363 cells
  NFAT-GFP ASSAY Positive Cell lines: (+/−), L363 (+/−),
Coculture with RAJI cells
  NFAT-GFP ASSAY Positive Cell lines: RAJI (+/−), U266
Coculture with U266 cells
  NFAT-GFP ASSAY Positive Cell lines: (+/−), L363 (+/−),
